Source: patent publication US20260250410A1 (SICHUAN HUIYU PHARMACEUTICAL, published 2026)

T1: HuCDCP1-C (human, UniProt Q9H5V8 30-667)
T1 construct: range 30-667; expressed in HEK-293T, purified by Fc/his tag; also called human CDCP1-C; full-length extracellular domain of human CDCP1; not shown: Fc or his tag
T1 sequence (looked up): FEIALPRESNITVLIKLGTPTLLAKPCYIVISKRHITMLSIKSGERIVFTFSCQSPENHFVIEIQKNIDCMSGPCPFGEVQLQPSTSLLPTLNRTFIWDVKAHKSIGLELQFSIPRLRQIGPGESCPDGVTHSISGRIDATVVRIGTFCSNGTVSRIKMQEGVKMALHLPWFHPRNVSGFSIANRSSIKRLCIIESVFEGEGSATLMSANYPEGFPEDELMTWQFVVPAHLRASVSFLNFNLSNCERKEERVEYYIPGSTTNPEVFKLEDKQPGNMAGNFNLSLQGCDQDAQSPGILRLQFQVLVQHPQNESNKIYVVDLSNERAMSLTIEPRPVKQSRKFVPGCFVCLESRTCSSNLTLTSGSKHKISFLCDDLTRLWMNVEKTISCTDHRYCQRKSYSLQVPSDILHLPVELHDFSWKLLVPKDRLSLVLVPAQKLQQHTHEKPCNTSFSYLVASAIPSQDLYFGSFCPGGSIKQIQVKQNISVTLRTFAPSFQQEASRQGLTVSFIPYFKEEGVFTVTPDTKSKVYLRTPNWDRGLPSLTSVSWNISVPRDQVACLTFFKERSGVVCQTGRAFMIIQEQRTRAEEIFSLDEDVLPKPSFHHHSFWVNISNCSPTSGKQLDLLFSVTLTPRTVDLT


The binders below were run against T1, HuCDCP1-C (assay: SPR (Caterra), antigen immobilized).
Method: The humanized anti-CDCP1 antibodies obtained from Example 11 were subjected to gene cloning, constructed into pTT5 expression vector for a small amount of expression in CHO cells (Expi-CHOS: Gibco A29127), and purified with an Fc affinity column (AT Protein A Diamond Plus. No. AA402312). Antibody purity was analyzed by HPLC and determined by Nanodrop. High-throughput affinity assay was carried out for a small amount of antibodies by Caterra.

Kd [nM]	koff [s⁻¹]	kon [M⁻¹ s⁻¹]	Binder
0.368	5e-05	136000	1CP-112 (antibody, human IgG1, kappa, V domains shown, humanized 8E5, human IgG1 kappa) VH: QVQLVQSGSELKKPGASVKVSCKASGYTLTDFSMHWVRQAPGQGLEWMGWINTETGAPTYADDFKGRFVFSLDTSVSTAYLQISSLKAEDTAVYYCSRGRDYDPHFDYWGQGTLVTVSS VL: EIVLTQSPATLSLSPGERATLSCRASQSISDFLHWYQQKPGQAPRLLIKYASQSISGIPARFSGSGPGSDFTLTISSVEPEDFAVYYCQSAHSFPYTFGQGTKLEIKR
5.51	0.00124	226000	1CP-119 (antibody, human IgG1, kappa, V domains shown, humanized 8E5, human IgG1 kappa) VH: QVQLQQSGSELKKPGESVKLSCKASGYTLTDFSMHWVRQAPGQGLKWMGWINTETGAPTYADDFKGRFVFSLDTSVSMAYLQISSLKSEDTAVYYCSRGRDYDPHFDYWGQGTLVTVSS VL: EIVLTQSPATLSLSPGERATLSCRASQSISDFLHWYQQKPGQSPRLLIKYASQSISGIPARFSGSGSGSDFTLTISSVEPEDFAVYYCQSAHSFPYTFGQGTKLEIKR
13.4	0.00225	168000	1CP-118 (antibody, human IgG1, kappa, V domains shown, humanized 8E5, human IgG1 kappa) VH: QVQLVQSGSELKKPGESVKVSCKASGYTLTDFSMHWVRQAPGQGLEWMGWINTETGAPTYADDFKGRFVLSLDTSVSTAYLQISSLKSEDTAVYYCSRGRDYDPHFDYWGQGTLVTVSS VL: EIVLTQSPATLSLSPGERATLSCRASQSISDFLHWYQQKPGQSPRLLIKYASQSISGIPARFSGSGSGSDFTLTISSVEPEDFAVYYCQSAHSFPYTFGQGTKLEIKR
0.122	1.7e-05	139000	1CP-120 (antibody, human IgG1, kappa, V domains shown, humanized 8E5, human IgG1 kappa) VH: QVQLVQSGSELKKPGASVKVSCKASGYTLTDFSMHWVRQAPGQGLEWMGWINTETGAPTYADDFKGRFVFSLDTSVSTAYLQISSLKAEDTAVYYCSRGRDYDPHFDYWGQGTLVTVSS VL: EIVLTQSPATLSLSPGERATLSCRASQSISDFLHWYQQKSGQSPRLLIKYASQSISGIPARFSGSGSGSDFTLTISSVEPEDFAVYYCQSAHSFPYTFGQGTKLEIKR
0.411	5.9e-05	143000	1CP-113 (antibody, human IgG1, kappa, V domains shown, humanized 8E5, human IgG1 kappa) VH: QVQLVQSGSELKKPGASVKVSCKASGYTLTDFSMHWVRQAPGQGLEWMGWINTETGAPTYADDFKGRFVLSLDTSVSTAYLQISSLKAEDTAVYYCSRGRDYDPHFDYWGQGTLVTVSS VL: EIVLTQSPATLSLSPGERATLSCRASQSISDFLHWYQQKPGQAPRLLIKYASQSISGIPARFSGSGPGSDFTLTISSVEPEDFAVYYCQSAHSFPYTFGQGTKLEIKR
11.4	0.00227	199000	1CP-123 (antibody, human IgG1, kappa, V domains shown, humanized 8E5, human IgG1 kappa) VH: QVQLQQSGSELKKPGESVKLSCKASGYTLTDFSMHWVRQAPGQGLKWMGWINTETGAPTYADDFKGRFVFSLDTSVSMAYLQISSLKSEDTAVYYCSRGRDYDPHFDYWGQGTLVTVSS VL: EIVLTQSPATLSLSPGERATLSCRASQSISDFLHWYQQKSGQSPRLLIKYASQSISGIPARFSGSGSGSDFTLTISSVEPEDFAVYYCQSAHSFPYTFGQGTKLEIKR
0.359	4.59e-05	128000	1CP-116 (antibody, human IgG1, kappa, V domains shown, humanized 8E5, human IgG1 kappa) VH: QVQLVQSGSELKKPGASVKVSCKASGYTLTDFSMHWVRQAPGQGLEWMGWINTETGAPTYADDFKGRFVFSLDTSVSTAYLQISSLKAEDTAVYYCSRGRDYDPHFDYWGQGTLVTVSS VL: EIVLTQSPATLSLSPGERATLSCRASQSISDFLHWYQQKPGQSPRLLIKYASQSISGIPARFSGSGSGSDFTLTISSVEPEDFAVYYCQSAHSFPYTFGQGTKLEIKR
15.2	0.00246	161000	1CP-114 (antibody, human IgG1, kappa, V domains shown, humanized 8E5, human IgG1 kappa) VH: QVQLVQSGSELKKPGESVKVSCKASGYTLTDFSMHWVRQAPGQGLEWMGWINTETGAPTYADDFKGRFVLSLDTSVSTAYLQISSLKSEDTAVYYCSRGRDYDPHFDYWGQGTLVTVSS VL: EIVLTQSPATLSLSPGERATLSCRASQSISDFLHWYQQKPGQAPRLLIKYASQSISGIPARFSGSGPGSDFTLTISSVEPEDFAVYYCQSAHSFPYTFGQGTKLEIKR
12.5	0.00209	167000	1CP-122 (antibody, human IgG1, kappa, V domains shown, humanized 8E5, human IgG1 kappa) VH: QVQLVQSGSELKKPGESVKVSCKASGYTLTDFSMHWVRQAPGQGLEWMGWINTETGAPTYADDFKGRFVLSLDTSVSTAYLQISSLKSEDTAVYYCSRGRDYDPHFDYWGQGTLVTVSS VL: EIVLTQSPATLSLSPGERATLSCRASQSISDFLHWYQQKSGQSPRLLIKYASQSISGIPARFSGSGSGSDFTLTISSVEPEDFAVYYCQSAHSFPYTFGQGTKLEIKR
6.78	0.00143	211000	1CP-126 (antibody, human IgG1, kappa, V domains shown, humanized 3C11, human IgG1 kappa) VH: QVQLVQSGAEVKKPGASVKVSCKASGYNFISYWLHWVRQAPGQGLEWMGGIYPGNTDTTYNQKFKGRVTMTADTSTSTAYMELSSLRSEDTAVYYCIRYDYDRGMDYWGQGTLVTVSS VL: DIQMTQSPSSLSASVGDRVTITCRASEDIYYRLAWYQQKPGKAPKLLISGATALETGVPSRFSGSGSGKDYTFTISSLQPEDIATYYCQHYWNIPWTFGQGTKVEIKR
10.5	0.002	191000	1CP-131 (antibody, human IgG1, kappa, V domains shown, humanized 3C11, human IgG1 kappa) VH: QVQLVQSGAEVKKPGASVKVSCKASGYNFISYWLHWVRQAPGQGLEWMGGIYPGNTDTTYNQKFKGRVTVTAVTSTSTVYMELSSLRSEDTAVYYCIRYDYDRGMDYWGQGTLVTVSS VL: DIQMTQSPSSLSASVGDRVTITCRASEDIYYRLAWYQQKPGKAPKLLISGATALETGVPSRFSGSGSGKDYTLTISSLQPEDIATYYCQHYWNIPWTFGQGTKVEIKR
9.66	0.00198	205000	1CP-127 (antibody, human IgG1, kappa, V domains shown, humanized 3C11, human IgG1 kappa) VH: QVQLVQSGAEVKKPGASVKVSCKASGYNFISYWLHWVRQAPGQGLEWMGGIYPGNTDTTYNQKFKGRVTVTAVTSTSTVYMELSSLRSEDTAVYYCIRYDYDRGMDYWGQGTLVTVSS VL: DIQMTQSPSSLSASVGDRVTITCRASEDIYYRLAWYQQKPGKAPKLLISGATALETGVPSRFSGSGSGKDYTFTISSLQPEDIATYYCQHYWNIPWTFGQGTKVEIKR
4.8	0.0012	249000	1CP-135 (antibody, human IgG1, kappa, V domains shown, humanized 3C11, human IgG1 kappa) VH: QVQLVQSGAEVKKPGASVKVSCKASGYNFISYWLHWVRQAPGQGLEWMGGIYPGNTDTTYNQKFKGRVTVTAVTSTSTVYMELSSLRSEDTAVYYCIRYDYDRGMDYWGQGTLVTVSS VL: DIQMTQSPSSLSASVGDRVTITCRASEDIYYRLAWYQQKPGNAPKLLISGATALETGVPSRFSGSGSGKDYTLTISSLQPEDIATYYCQHYWNIPWTFGQGTKVEIKR
≤ 0.0713	≤ 1e-05	140000	1CP-132 (antibody, human IgG1, kappa, V domains shown, humanized 3C11, human IgG1 kappa) VH: QVQLVQSGAEVKKPGASVKVSCKASGYNFISYWLHWVRQAPGQGLEWMGGIYPGNTDTTYNQKFKGRVTMTRDTSTSTVYMELSSLRSEDTAVYYCIRYDYDRGMDYWGQGTLVTVSS VL: DIQMTQSPSSLSASVGDRVTITCRASEDIYYRLAWYQQKPGNAPKLLISGATALETGVPSRFSGSGSGKDYTLTISSLQPEDIATYYCQHYWNIPWTFGQGTKVEIKR
≤ 0.0546	≤ 1e-05	183000	1CP-133 (antibody, human IgG1, kappa, V domains shown, humanized 3C11, human IgG1 kappa) VH: QVQLVQSGAEVKKPGASVKVSCKASGYNFISYWLHWVRQAPGQGLEWMGGIYPGNTDTTYNQKFKGRVTMTADTSTSTVYMELSSLRSEDTAVYYCIRYDYDRGMDYWGQGTLVTVSS VL: DIQMTQSPSSLSASVGDRVTITCRASEDIYYRLAWYQQKPGNAPKLLISGATALETGVPSRFSGSGSGKDYTLTISSLQPEDIATYYCQHYWNIPWTFGQGTKVEIKR
10.5	0.00202	193000	1CP-134 (antibody, human IgG1, kappa, V domains shown, humanized 3C11, human IgG1 kappa) VH: QVQLVQSGAEVKKPGASVKVSCKASGYNFISYWLHWVRQAPGQGLEWMGGIYPGNTDTTYNQKFKGRVTMTADTSTSTAYMELSSLRSEDTAVYYCIRYDYDRGMDYWGQGTLVTVSS VL: DIQMTQSPSSLSASVGDRVTITCRASEDIYYRLAWYQQKPGNAPKLLISGATALETGVPSRFSGSGSGKDYTLTISSLQPEDIATYYCQHYWNIPWTFGQGTKVEIKR
3.6	0.000441	123000	1CP-156 (antibody, human IgG1, kappa, V domains shown, humanized 8C9, human IgG1 kappa) VH: EVQLVESGGGLVQPGRSLRLSCTTSGLTFTHYHMSWVRQAPGKGLEWVAIIRNKAYGYTTDYSASVRGRFTISRDDSKSILYLQMNSLKTEDTAVYYCVREGGYGYDGTFAYWGQGTLVTVSS VL: DIQMTQSPSSLSASVGDRVTITCRASESVDNYGISFMNWFQQKPGQPPKLLIYAASNQGSGVPSRFSGSGSGTDFTLTISSMQPEDFATYYCQQSKEVPRTFGGGTKVEIKR
